The source of these data is article PMC3040281 (Biochemistry, 2011).

In one data set the target is T1, YghU (Escherichia coli, UniProt Q46845).
T1 sequence (Q46845 1-288): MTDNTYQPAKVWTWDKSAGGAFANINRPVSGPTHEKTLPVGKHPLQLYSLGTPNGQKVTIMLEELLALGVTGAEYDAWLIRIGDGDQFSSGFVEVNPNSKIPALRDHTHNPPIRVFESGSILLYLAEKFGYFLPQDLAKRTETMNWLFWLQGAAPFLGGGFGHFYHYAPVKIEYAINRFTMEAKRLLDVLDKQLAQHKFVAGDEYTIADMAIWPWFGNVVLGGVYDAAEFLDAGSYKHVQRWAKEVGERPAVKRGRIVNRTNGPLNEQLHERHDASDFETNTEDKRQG
Kind of data set: intrinsic protein fluorescence titration, single-site fit. The class given is binding.

The data set “SEC” concerns the molecule itself. Kind of data set: SEC. (SEC sorts molecules by how far they enter the pores of the column.)
Substrate in data set [1]: CCCCC[C@@H](/C=C/C=C\CCCCCCCC(=O)O)OO
Nature of the data set: purified protein. It is filed as biochemical, Escherichia coli. As to conditions: GSH co-substrate, 100 mM KH2PO4, pH 7.0, 25 °C.

Substrate in data set [2]: CC(C)(OO)c1ccccc1
Kind of data set: purified protein. The class given is biochemical, Escherichia coli. The conditions noted are these: GSH co-substrate, 100 mM KH2PO4, pH 7.0, 25 °C.

Substrate in data set [3]: CCCCC[C@@H](/C=C/C=C\C/C=C\C/C=C\CCCC(=O)O)OO
Nature of the data set: purified protein. It is filed as biochemical, Escherichia coli. The conditions noted are these: 3 mM GSH, 100 mM KH2PO4, pH 7.0, 0.005% BSA, 25 °C.

Turning to `NCCCCNCCCNC(=O)CNC(=O)[C@H](CS)NC(=O)CC[C@H](N)C(=O)O` [GspSH], the Kd on YghU is 1000 ± 100 µM.

B1: YghU (enzyme, Escherichia coli K-12, UniProt Q46845 1-288, looked up)
chain: T1 sequence (Q46845 1-288)
Regarding B1, in “SEC”, the “stoichiometry N” value was determined as 2. Besides, in the data set “purified protein [1]”, the Michaelis-Menten constant (Km) is 130 ± 30 µM, the turnover number (kcat) is 0.19 ± 0.02 s⁻¹ and the catalytic efficiency (kcat/Km) was determined as 1500 ± 400 M⁻¹ s⁻¹. In addition, in the data set “purified protein [2]”, the Km is 16 ± 2 µM, the turnover number (kcat) was 0.05 ± 0.001 s⁻¹ and the catalytic efficiency (kcat/Km) amounted to 3500 ± 400 M⁻¹ s⁻¹. In the data set “purified protein [3]”, the Michaelis-Menten constant (Km) stood at 28 ± 4 µM, the kcat was found to be 0.096 ± 0.004 s⁻¹ and the kcat/Km amounted to 3400 ± 1500 M⁻¹ s⁻¹.

By Kd is commonly meant a measure of binding affinity in units of concentration. What is called stoichiometry N is a count of units in the complex or per binding partner. As a reminder, the Km is the substrate concentration at which the rate is half of its maximum. As a reminder, the kcat is the number of substrate molecules converted per active site and unit of time at saturation. By kcat/Km is commonly meant the second-order rate constant that governs catalysis at low substrate concentration.
